For data set [1], the target named is T1, RHAU53 peptide (DHX36 rG4-binding domain) (synthetic construct, UniProt Q9H2U1 SEQ:1-53).
T1 sequence: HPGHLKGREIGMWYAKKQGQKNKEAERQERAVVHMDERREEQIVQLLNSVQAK
In words: EMSA; 100 nM RHAU53; binding to APP rG4 region inhibited by L-Apt.4-1c-ASO15nt(APP); data not shown; 37 C, KCl, MgCl2. The settings on record: protein: synthetic; tags: none, chemically synthesized by Synpeptide; label: 5' HEX; RNA G-quadruplex with 3' flank. As for the experimental part:
L-Apt.4-1c-ASO15nt_{(APP)} conjugate was serial diluted, and then the conjugate and HEX APP rG4 wt region were firstly refolded by heating at 95° C. for 5 min, 25° C. for 5 min, then 4° C. for at least 30 min separately in buffer containing 150 mM KCl, 1 mM MgCl₂, 25 mM Tris-HCl (pH 7.5) and 8% sucrose separately. 48 nM DHX36 protein (SEQ ID NO: 41) (or 100 nM RHAU53 peptide (SEQ ID NO: 42)), HEX_APP rG4 wt region (SEQ ID NO: 12) and L-Apt.4-1c-ASO15nt_{(APP)} were mixed and incubated for 30 min at 37° C. for competition binding. Then, the samples were loaded and resolved in 6% (37.5:1, acrylamide/bis-acrylamide) native gel for 70min at 35 mA at 4° C. in the running buffer containing 50 mM KOAc, 25 mM Tris-HCl (pH 7.5), 1 mM MgCl₂ (for DHX36) or running at 12.5 mA for 75 min in buffer containing 0.5×TBE and 40 mM KOAc (for RHAU53). At last, gels were scanned using Typhoon laser-scanner platform (Cytiva). Gel pictures were analyzed by image J software.
Background: In EMSA bound probe runs differently from free probe, usually more slowly.

In another data set the target is T2, DHX36 (Homo sapiens, UniProt Q9H2U1 SEQ:1-1008).
T2 chain: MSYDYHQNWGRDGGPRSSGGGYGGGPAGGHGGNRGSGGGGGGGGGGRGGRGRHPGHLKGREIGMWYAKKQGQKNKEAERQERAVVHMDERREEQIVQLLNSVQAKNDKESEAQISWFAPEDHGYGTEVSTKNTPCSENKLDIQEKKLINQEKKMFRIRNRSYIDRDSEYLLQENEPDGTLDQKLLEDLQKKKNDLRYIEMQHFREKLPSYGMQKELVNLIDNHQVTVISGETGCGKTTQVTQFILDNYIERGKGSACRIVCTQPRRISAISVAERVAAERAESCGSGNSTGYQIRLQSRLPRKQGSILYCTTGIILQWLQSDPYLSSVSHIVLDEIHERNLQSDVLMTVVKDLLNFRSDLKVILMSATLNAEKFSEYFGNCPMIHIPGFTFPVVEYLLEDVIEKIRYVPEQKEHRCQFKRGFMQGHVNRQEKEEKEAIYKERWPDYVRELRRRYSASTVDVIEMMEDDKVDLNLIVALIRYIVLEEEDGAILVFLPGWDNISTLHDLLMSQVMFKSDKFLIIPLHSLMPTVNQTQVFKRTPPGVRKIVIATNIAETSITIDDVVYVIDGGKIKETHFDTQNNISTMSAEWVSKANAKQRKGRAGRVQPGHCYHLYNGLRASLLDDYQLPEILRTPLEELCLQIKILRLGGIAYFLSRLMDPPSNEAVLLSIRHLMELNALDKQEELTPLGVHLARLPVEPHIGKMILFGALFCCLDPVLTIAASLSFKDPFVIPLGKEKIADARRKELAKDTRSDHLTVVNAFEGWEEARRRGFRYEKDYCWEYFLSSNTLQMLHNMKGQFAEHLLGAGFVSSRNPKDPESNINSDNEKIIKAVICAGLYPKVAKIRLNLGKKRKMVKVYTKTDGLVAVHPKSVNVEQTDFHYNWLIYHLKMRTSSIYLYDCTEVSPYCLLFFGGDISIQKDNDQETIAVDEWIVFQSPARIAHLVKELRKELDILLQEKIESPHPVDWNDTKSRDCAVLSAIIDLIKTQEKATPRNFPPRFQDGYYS
In words: EMSA; strong gel shift bands with DHX36; data not shown; exact label of the oligo not stated. The settings on record: label: 5' HEX; RNA G-quadruplex with 3' flank.

Take GGGGCGGGUGGGGAGGGGUGCUCUGCUGGUCUUCAAUU (ssRNA) [APP rG4 wt region (HEX)]: the binding result (in data set [1]; with DHX36) was “binds” each time.
